To fix the notation:
B1: Pistol ribozyme (parent)
chain: GGGUCGUUGUUCCAUAAUCGCGUGGAUAUGGCACGCAAGUUUCUACCGGGCACCGUAAAUGUCCGACUGGAGCCGUUCGGGCGGCUAUAAACAGACCUCAGGCCCGAAGCGUGGCGGCACCUGCCGCCGGUGGUAAAAAAGAUCGGAAGAGCACACGUCU

The series covers variants of B1. Kind of series: aptazyme ON/OFF ratio, guanine; higher = stronger switching; co-transcriptional cleavage with and without guanine.
Turning to GGGUCGUUCCGCGAUAAUCGCGUGGAUAUGGCACGCAAGUUUCUACCGGGCACCGUAAAUGUCCGACUGGAGCCGUUCGGGCGGCUAUAAACAGACCUCAGGCCCGAAGCGUGGCGGCACCUGCCGCCGGUGGUAAAAAAGAUCGGAAGAGCACACGUCU [G9C U10C U11G C13G], the “aptazyme ON/OFF ratio” value turned out to be 1.08. To GGGUCGUUCCGCUAUAAUCGCGUGGAUAUGGCACGCAAGUUUCUACCGGGCACCGUAAAUGUCCGACUGGAGCCGUUCGGGCGGCUAUAAACAGACCUCAGGCCCGAAGCGUGGCGGCACCUGCCGCCGGUGGUAAAAAAGAUCGGAAGAGCACACGUCU [G9C U10C U11G C13U] belongs 1.08; to GGGUCGUUCCGCAAUAAUCGCGUGGAUAUGGCACGCAAGUUUCUACCGGGCACCGUAAAUGUCCGACUGGAGCCGUUCGGGCGGCUAUAAACAGACCUCAGGCCCGAAGCGUGGCGGCACCUGCCGCCGGUGGUAAAAAAGAUCGGAAGAGCACACGUCU [G9C U10C U11G C13A], 1.06; to GGGUCGUUCGUCAAUAAUCGCGUGGAUAUGGCACGCAAGUUUCUACCGGGCACCGUAAAUGUCCGACUGGAGCCGUUCGGGCGGCUAUAAACAGACCUCAGGCCCGAAGCGUGGCGGCACCUGCCGCCGGUGGUAAAAAAGAUCGGAAGAGCACACGUCU [G9C U10G C13A], 1.28. To GGGUCGUUCGUCCAUAAUCGCGUGGAUAUGGCACGCAAGUUUCUACCGGGCACCGUAAAUGUCCGACUGGAGCCGUUCGGGCGGCUAUAAACAGACCUCAGGCCCGAAGCGUGGCGGCACCUGCCGCCGGUGGUAAAAAAGAUCGGAAGAGCACACGUCU [G9C U10G] belongs 2.17. For GGGUCGUUCGUUAAUAAUCGCGUGGAUAUGGCACGCAAGUUUCUACCGGGCACCGUAAAUGUCCGACUGGAGCCGUUCGGGCGGCUAUAAACAGACCUCAGGCCCGAAGCGUGGCGGCACCUGCCGCCGGUGGUAAAAAAGAUCGGAAGAGCACACGUCU [G9C U10G C12U C13A], the “aptazyme ON/OFF ratio” value came to 1.15. To GGGUCGUUCGUUGAUAAUCGCGUGGAUAUGGCACGCAAGUUUCUACCGGGCACCGUAAAUGUCCGACUGGAGCCGUUCGGGCGGCUAUAAACAGACCUCAGGCCCGAAGCGUGGCGGCACCUGCCGCCGGUGGUAAAAAAGAUCGGAAGAGCACACGUCU [G9C U10G C12U C13G] belongs 1.15; to GGGUCGUUCGUUUAUAAUCGCGUGGAUAUGGCACGCAAGUUUCUACCGGGCACCGUAAAUGUCCGACUGGAGCCGUUCGGGCGGCUAUAAACAGACCUCAGGCCCGAAGCGUGGCGGCACCUGCCGCCGGUGGUAAAAAAGAUCGGAAGAGCACACGUCU [G9C U10G C12U C13U], 1.22; to GGGUCGUUCGUUCAUAAUCGCGUGGAUAUGGCACGCAAGUUUCUACCGGGCACCGUAAAUGUCCGACUGGAGCCGUUCGGGCGGCUAUAAACAGACCUCAGGCCCGAAGCGUGGCGGCACCUGCCGCCGGUGGUAAAAAAGAUCGGAAGAGCACACGUCU [G9C U10G C12U], 1.47.

For GGGUCGUUCGUGCAUAAUCGCGUGGAUAUGGCACGCAAGUUUCUACCGGGCACCGUAAAUGUCCGACUGGAGCCGUUCGGGCGGCUAUAAACAGACCUCAGGCCCGAAGCGUGGCGGCACCUGCCGCCGGUGGUAAAAAAGAUCGGAAGAGCACACGUCU [G9C U10G C12G], the “aptazyme ON/OFF ratio” value was 1.19. As to GGGUCGUUCGUACAUAAUCGCGUGGAUAUGGCACGCAAGUUUCUACCGGGCACCGUAAAUGUCCGACUGGAGCCGUUCGGGCGGCUAUAAACAGACCUCAGGCCCGAAGCGUGGCGGCACCUGCCGCCGGUGGUAAAAAAGAUCGGAAGAGCACACGUCU [G9C U10G C12A], the “aptazyme ON/OFF ratio” value is 1.3.

For GGGUCGUUCCGUUAUAAUCGCGUGGAUAUGGCACGCAAGUUUCUACCGGGCACCGUAAAUGUCCGACUGGAGCCGUUCGGGCGGCUAUAAACAGACCUCAGGCCCGAAGCGUGGCGGCACCUGCCGCCGGUGGUAAAAAAGAUCGGAAGAGCACACGUCU [G9C U10C U11G C12U C13U], the “aptazyme ON/OFF ratio” value came to 1.06. GGGUCGUUCGUAUAUAAUCGCGUGGAUAUGGCACGCAAGUUUCUACCGGGCACCGUAAAUGUCCGACUGGAGCCGUUCGGGCGGCUAUAAACAGACCUCAGGCCCGAAGCGUGGCGGCACCUGCCGCCGGUGGUAAAAAAGAUCGGAAGAGCACACGUCU [G9C U10G C12A C13U]: the “aptazyme ON/OFF ratio” value was 1.32. To GGGUCGUUCGUAAAUAAUCGCGUGGAUAUGGCACGCAAGUUUCUACCGGGCACCGUAAAUGUCCGACUGGAGCCGUUCGGGCGGCUAUAAACAGACCUCAGGCCCGAAGCGUGGCGGCACCUGCCGCCGGUGGUAAAAAAGAUCGGAAGAGCACACGUCU [G9C U10G C12A C13A] belongs 1.15; to GGGUCGUUCGUAGAUAAUCGCGUGGAUAUGGCACGCAAGUUUCUACCGGGCACCGUAAAUGUCCGACUGGAGCCGUUCGGGCGGCUAUAAACAGACCUCAGGCCCGAAGCGUGGCGGCACCUGCCGCCGGUGGUAAAAAAGAUCGGAAGAGCACACGUCU [G9C U10G C12A C13G], 1.11; to GGGUCGUUCGUGGAUAAUCGCGUGGAUAUGGCACGCAAGUUUCUACCGGGCACCGUAAAUGUCCGACUGGAGCCGUUCGGGCGGCUAUAAACAGACCUCAGGCCCGAAGCGUGGCGGCACCUGCCGCCGGUGGUAAAAAAGAUCGGAAGAGCACACGUCU [G9C U10G C12G C13G], 1.14. Turning to GGGUCGUUCGUGUAUAAUCGCGUGGAUAUGGCACGCAAGUUUCUACCGGGCACCGUAAAUGUCCGACUGGAGCCGUUCGGGCGGCUAUAAACAGACCUCAGGCCCGAAGCGUGGCGGCACCUGCCGCCGGUGGUAAAAAAGAUCGGAAGAGCACACGUCU [G9C U10G C12G C13U], the “aptazyme ON/OFF ratio” value came out at 1.05. For GGGUCGUUCGUGAAUAAUCGCGUGGAUAUGGCACGCAAGUUUCUACCGGGCACCGUAAAUGUCCGACUGGAGCCGUUCGGGCGGCUAUAAACAGACCUCAGGCCCGAAGCGUGGCGGCACCUGCCGCCGGUGGUAAAAAAGAUCGGAAGAGCACACGUCU [G9C U10G C12G C13A], the “aptazyme ON/OFF ratio” value was 1.22.

For the origin of these results see the RNAGym collection of RNA variant scans (doi:10.1021/acssynbio.7b00057).
